Experiment [1] deals with nuclear pore complex of nup120Δ cells (S. cerevisiae (endogenous)) (UniProt P52891). In words: co-fractionation with isolated NPCs (QFPD, quantitative fluorescent protein detection); glucose-grown (repressing) cells; nuclei isolated on sucrose/PVP-40 gradients, lysed with DNase I, NPC fraction floated on sucrose/Nycodenz gradient; GFP fluorescence of the fractions read on a Typhoon imager; values relative to wild type; also done in gcr1Δ and gcr1Δ nup84Δ strains.

For experiment [2], the target named is nuclear pore complex of nup84Δ cells (S. cerevisiae (endogenous)) (UniProt P35729). The experiment is described as above.
nuclear pore complex of nup84Δ cells (S. cerevisiae (endogenous)), sequence (P35729 whole entry, looked up, stated change not applied, one chain of several): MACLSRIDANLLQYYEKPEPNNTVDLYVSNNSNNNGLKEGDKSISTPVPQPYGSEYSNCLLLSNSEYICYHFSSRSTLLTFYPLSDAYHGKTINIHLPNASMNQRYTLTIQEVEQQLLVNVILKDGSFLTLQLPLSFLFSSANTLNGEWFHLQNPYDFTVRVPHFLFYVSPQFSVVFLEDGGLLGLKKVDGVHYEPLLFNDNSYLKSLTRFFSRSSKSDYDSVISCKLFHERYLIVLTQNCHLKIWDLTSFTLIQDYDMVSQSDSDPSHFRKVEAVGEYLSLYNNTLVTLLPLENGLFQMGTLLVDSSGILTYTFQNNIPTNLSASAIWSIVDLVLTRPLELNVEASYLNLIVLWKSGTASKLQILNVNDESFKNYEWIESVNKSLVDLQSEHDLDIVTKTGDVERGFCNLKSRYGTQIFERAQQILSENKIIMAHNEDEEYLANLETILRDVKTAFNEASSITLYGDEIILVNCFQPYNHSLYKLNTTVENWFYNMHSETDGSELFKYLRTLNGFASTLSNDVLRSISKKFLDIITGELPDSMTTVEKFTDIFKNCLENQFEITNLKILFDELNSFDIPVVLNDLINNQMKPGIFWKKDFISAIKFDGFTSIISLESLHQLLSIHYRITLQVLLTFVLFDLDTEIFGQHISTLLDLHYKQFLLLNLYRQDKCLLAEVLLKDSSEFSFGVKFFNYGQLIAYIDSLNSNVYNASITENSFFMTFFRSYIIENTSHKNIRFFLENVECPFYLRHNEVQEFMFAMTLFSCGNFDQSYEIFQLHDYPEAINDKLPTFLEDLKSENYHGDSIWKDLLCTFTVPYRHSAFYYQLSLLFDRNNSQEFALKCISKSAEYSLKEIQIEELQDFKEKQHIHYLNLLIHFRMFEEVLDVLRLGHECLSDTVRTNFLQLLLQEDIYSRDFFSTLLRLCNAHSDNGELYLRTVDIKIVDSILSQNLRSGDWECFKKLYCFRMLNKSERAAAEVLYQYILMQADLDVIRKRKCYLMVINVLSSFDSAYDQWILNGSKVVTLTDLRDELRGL
Experiment [3] addresses nuclear pore complex of nup133Δ cells (S. cerevisiae (endogenous)) (UniProt P52891). The experiment is described as above.
Experiment [4] has as its target T1, Mig1-GFP fusion protein (S. cerevisiae, UniProt P27705 1-504).
T1 construct: Mig1, glucose-regulated repressor of S. cerevisiae; GFP tag integrated at the MIG1 locus; Called a fully functional fusion; also called GFP-tagged Mig1; source: S. cerevisiae, Mig1-GFP strain from the Yeast GFP Clone collection (Invitrogen), integrated GFP tag; in crude lysate or cell fractions
In words: co-IP; anti-GFP antibody added to crude lysate of glucose-grown cells, protein A sepharose; eluate blotted and probed with anti-lexA antibody (anti-GFP as control). The note with it: partners not purified.

nuclear pore complex of nup120Δ cells (S. cerevisiae (endogenous)), sequence (P52891 whole entry, looked up, stated change not applied, one chain of several): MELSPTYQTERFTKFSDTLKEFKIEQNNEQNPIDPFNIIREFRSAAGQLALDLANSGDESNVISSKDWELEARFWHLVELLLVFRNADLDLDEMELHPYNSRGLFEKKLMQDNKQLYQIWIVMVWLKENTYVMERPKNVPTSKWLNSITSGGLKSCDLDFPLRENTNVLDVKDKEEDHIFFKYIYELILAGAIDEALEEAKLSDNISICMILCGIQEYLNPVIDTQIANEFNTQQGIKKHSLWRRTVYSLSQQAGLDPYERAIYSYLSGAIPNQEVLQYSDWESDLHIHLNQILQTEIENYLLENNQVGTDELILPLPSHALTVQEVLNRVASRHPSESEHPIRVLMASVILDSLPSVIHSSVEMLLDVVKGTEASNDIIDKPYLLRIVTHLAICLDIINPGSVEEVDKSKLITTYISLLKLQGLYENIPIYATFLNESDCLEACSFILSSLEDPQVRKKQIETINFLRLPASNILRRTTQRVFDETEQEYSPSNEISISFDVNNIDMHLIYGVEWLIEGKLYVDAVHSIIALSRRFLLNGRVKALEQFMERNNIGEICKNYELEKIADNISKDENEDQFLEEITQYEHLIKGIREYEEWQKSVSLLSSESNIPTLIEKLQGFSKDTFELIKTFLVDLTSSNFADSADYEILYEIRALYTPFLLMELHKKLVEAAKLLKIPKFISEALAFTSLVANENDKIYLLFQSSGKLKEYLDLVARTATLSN
nuclear pore complex of nup133Δ cells (S. cerevisiae (endogenous)), sequence (P52891 whole entry, looked up, stated change not applied, the tested form may be a part, one chain of several): as the sequence (P52891 whole entry, looked up, stated change not applied, one chain of several) above
T1 sequence (P27705 whole entry, the tested form may be a part): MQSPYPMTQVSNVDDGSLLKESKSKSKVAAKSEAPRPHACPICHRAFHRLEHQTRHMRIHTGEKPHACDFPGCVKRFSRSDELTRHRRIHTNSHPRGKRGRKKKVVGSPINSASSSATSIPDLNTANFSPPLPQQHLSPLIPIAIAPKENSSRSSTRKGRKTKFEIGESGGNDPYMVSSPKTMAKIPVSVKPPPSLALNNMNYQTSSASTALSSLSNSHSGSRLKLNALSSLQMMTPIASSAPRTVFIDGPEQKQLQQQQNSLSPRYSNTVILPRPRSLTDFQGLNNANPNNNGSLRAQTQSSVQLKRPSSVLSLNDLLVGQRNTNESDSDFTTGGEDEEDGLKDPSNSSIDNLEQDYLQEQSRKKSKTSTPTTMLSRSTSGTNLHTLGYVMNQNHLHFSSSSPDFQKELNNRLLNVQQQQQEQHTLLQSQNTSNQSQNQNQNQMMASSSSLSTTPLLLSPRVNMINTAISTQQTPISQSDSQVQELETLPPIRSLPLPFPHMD

Take “Mig1-GFP fusion protein (from UniProt P27705 1-504) (natural protein)”: the perinuclear Mig1 relative to wild type (relative to wild type (1.00)) in experiment [1] is 0.43; in experiment [2], 1.3; in experiment [3] it was 0.03.

B1: Nup53-lexA (natural protein, S. cerevisiae, UniProt Q03790 1-475, looked up)
chain: MADLQKQENSSRFTNVSVIAPESQGQHEQQKQQEQLEQQKQPTGLLKGLNGFPSAPQPLFMEDPPSTVSGELNDNPAWFNNPRKRAIPNSIIKRSNGQSLSPVRSDSADVPAFSNSNGFNNVTFGSKKDPRILKNVSPNDNNSANNNAHSSDLGTVVFDSNEAPPKTSLADWQKEDGIFSSKTDNIEDPNLSSNITFDGKPTATPSPFRPLEKTSRILNFFDKNTKTTPNTASSEASAGSKEGASTNWDDHAIIIFGYPETIANSIILHFANFGEILEDFRVIKDFKKLNSKNMSKSPSLTAQKYPIYTGDGWVKLTYKSELSKSRALQENGIIMNGTLIGCVSYSPAALKQLASLKKSEEIINNKTSSQTSLSSKDLSNYRKTEGIFEKAKAKAVTSKVRNAEFKVSKNSTSFKNPRRLEIKDGRSLFLRNRGKIHSGVLSSIESDLKKREQASKSKKSWLNRLNNWLFGWNDL
notes: Nup53, nucleoporin, S. cerevisiae; source: S. cerevisiae Mig1-GFP strain, in crude lysate
On to B1, for which the “fold reduction in co-immunoprecipitation relative to Nup84-lexA” value in experiment [4] is > 2 fold.

Source of the values: paper PMC3215702, “The Nuclear Pore Complex Mediates Binding of the Mig1 Repressor to Target Promoters” (PLoS ONE, 2011).
